# Source: the RNAGym collection of RNA variant scans (doi:10.7554/elife.80360)
# B1: HDV Ribozyme (parent)
# chain: GGCCGGCAUGGUCCCAGCCUCCUCGCUGGCGCCGGCUGGGCAACAUUCCGAGGGGACCGUCCCCUCGGUAAUGGCGAAUGGGACCCA
# Variants of: B1
# Test: self-cleavage, relative activity (ratio to wild type); higher = more cleavage; co-transcriptional
row,Variant,self-cleavage
1,GGCCGGCAUGGUCCCAGCCUCCUCGCUGGCGCCGGCUGGGCAACGUUCCGAGGGGACCGUCCCUUCGGUAAUGGCGAAUGGGACCCA [A45G C64U],0.889
2,GGCCGGCAUGGUCCCAGCCUCCUCGCUGGCGCCGGCUGGGCAACAUUCCGAGGGGACCGCCCCCUCGGUAAUGGCGAAUGCGACCCA [U60C G81C],0.291
3,GGCCGUUAUGGUCCCAGCCUCCUCGCUGGCGCCGGCUGGGCAACAUUCCGAGGGGACCGUCCCCUCGGUAAUGGCGAAUGGGACCCA [G6U C7U],0.151
4,GGCCGGCAUGGUCCCAGCCUCCUCGCUGGCGCAGGCUGGGCAACAUUCCGAGGGGACCGUCCCCUCGGUAAUGGGGAAUGGGACCCA [C33A C75G],0.145
5,GGCCGGCAUGGUCCCAGCCUCCUCGCUGGGGCCGGCUGGGCAACAUUCCGAGGGGACCGUCCCCACGGUAAUGGCGAAUGGGACCCA [C30G U65A],0.032
6,GGCCGGCAUGGUCCCAGCCUCCUCGCUGGCGCCGGCCGGGCAACAUUCCGAGGGGACCGACCCCUCGGUAAUGGCGAAUGGGACCCA [U37C U60A],1.27
7,GGCCGUCAUGGUCCCUGCCUCCUCGCUGGCGCCGGCUGGGCAACAUUCCGAGGGGACCGUCCCCUCGGUAAUGGCGAAUGGGACCCA [G6U A16U],0.305
8,GGCCGGCCUGGUCCCAGCCUCCUCGCUGGCGCCGGGUGGGCAACAUUCCGAGGGGACCGUCCCCUCGGUAAUGGCGAAUGGGACCCA [A8C C36G],0
9,GGCCGGCAUGGUCCCAGACUCCUGGCUGGCGCCGGCUGGGCAACAUUCCGAGGGGACCGUCCCCUCGGUAAUGGCGAAUGGGACCCA [C18A C24G],0.107
10,GACCGGCAUGGUCCCAGCCUCCUCGCUGGCGCCGGCUGGGCAACAUUCCGAGGCGACCGUCCCCUCGGUAAUGGCGAAUGGGACCCA [G2A G54C],0.296
11,GGCCGGCAUGGUCCCAGCCUCCUCGCUGGCGCCGGCUGAGCAACAUUCCGAGGGGACAGUCCCCUCGGUAAUGGCGAAUGGGACCCA [G39A C58A],0.475
12,UGCCGGCAUGGUCCCAGCCUCCUCGCUGGCGCUGGCUGGGCAACAUUCCGAGGGGACCGUCCCCUCGGUAAUGGCGAAUGGGACCCA [G1U C33U],0.436
13,GGCCGGCAUGGACCCAGCCUCCUCGCUGGCGCCGGCUGGGCAACAUUCCGAGGGGACCGUCCCCUCGGUACUGGCGAAUGGGACCCA [U12A A71C],0.262
14,GGCCGGCAUGGUCCCAGCCUCCUCGCUGGCGCCGGCUGGGCAACAUUCCGAGGGGACCGUCCCCUCGGUAAUGGCGAAGGGUACCCA [U79G G82U],0.271
15,GGACGGCAAGGUCCCAGCCUCCUCGCUGGCGCCGGCUGGGCAACAUUCCGAGGGGACCGUCCCCUCGGUAAUGGCGAAUGGGACCCA [C3A U9A],0.657
16,GGCCGGCAUGGUCCCAGCCUCCUCGCUGGCGCCGGCUGGGCAACAUUCCGAUGGGACCGUCCCCUCGGUAAUGGCCAAUGGGACCCA [G52U G76C],0.921
17,GGCCGGCAUGGUCCCAGCCUCCUCACUGGCGCCGGCUGGGCGACAUUCCGAGGGGACCGUCCCCUCGGUAAUGGCGAAUGGGACCCA [G25A A42G],0.158
18,GGCCGGCAUGGUCCCAGCCUCCUCGCUGGCGCCGGCAGGGCAACAUUCCGAGGGGACCGUCCCCUCGGUAAUGGCGAACGGGACCCA [U37A U79C],0.0623
19,GGCCGGCAUGGUCCCAGCCUCCUCGCUUGCGCCGGCUGGGCAACAUUCCGAGGGGACCGUCCCCUCGGUAAUGGAGAAUGGGACCCA [G28U C75A],0.0755
20,GGCCGGCAUGGUACCAGCCUCCUCGCUGGCGCCGGCUGGGCAAGAUUCCGAGGGGACCGUCCCCUCGGUAAUGGCGAAUGGGACCCA [C13A C44G],0
21,GGCCGGCAUGGUCCCAGCCUCCUCGCUGGCGCCGGCUGGGCAACAUUCCGAGGGGACCGACCCCUCGGUAAGGGCGAAUGGGACCCA [U60A U72G],0.467
22,GGCCGGCAUGGUCCCAACCUCCUCGCUGGCGCCGGCUGGGCAACAUUCCGAGGGGACCGUCCCCCCGGUAAUGGCGAAUGGGACCCA [G17A U65C],0.671

row,Variant,self-cleavage
1,GGCCGGCAUGGUCCCAGCCUCCUCGCUGGCGCCGGCUGGGCAACAUUCCGGGGGGACUGUCCCCUCGGUAAUGGCGAAUGGGACCCA [A51G C58U],0.95
2,GGCCGGCUUGGUCCCAGCCUCCUCGCUGGCGCCGGCUGGGCAACAUUCCGAUGGGACCGUCCCCUCGGUAAUGGCGAAUGGGACCCA [A8U G52U],0.872
3,GGCCGGCAUGGUCCCAGCCUCCUCGCUGGCGCCGGCUGGGCAAUAUUCCGAGGGGACCGUCCCCUCGGUAAUGGCGAAUGGGACCUA [C44U C86U],0.886
4,GGCCGGCAUGGUCCCAGCGUCCUCGCUGGCGCCGGCUGGGCAACAUUCCGAGGGGACCGUCCACUCGGUAAUGGCGAAUGGGACCCA [C19G C63A],0.0936
5,GGCCGGCAUGGUCCUAGCCUCCUCGCUGGCGCCGGCUGGCCAACAUUCCGAGGGGACCGUCCCCUCGGUAAUGGCGAAUGGGACCCA [C15U G40C],0.249
6,GGCCGGCAUGGUCCCAGCCUCCUCGCUGGCGCCGGCUGGGCAACAUUCCGAGGGGACCGUCCCCUCGGUAAGGGCGAAUGGGGCCCA [U72G A83G],0.58
7,AGCCGGCAUGGUCCCAGCCUCCUCGCUGGCGCCGGCUGGGCAACAUUCCGAGGGGACCGUCCCCUCGGUAAUGGCGAAUGGGUCCCA [G1A A83U],0
8,GGCCGGCAUGGUCCCAGCCUCCUCGCUGGCGCCGGCUGAGCAACAUUCCGAGGAGACCGUCCCCUCGGUAAUGGCGAAUGGGACCCA [G39A G54A],0.54
9,GGCCGGCAUGGUCCCAGCCUCCUAGCUGGCGCCGGCUGGGCAACAUUCCGAGGGGACAGUCCCCUCGGUAAUGGCGAAUGGGACCCA [C24A C58A],0.863
10,GGCCGGAAUGGUCCCAGCCGCCUCGCUGGCGCCGGCUGGGCAACAUUCCGAGGGGACCGUCCCCUCGGUAAUGGCGAAUGGGACCCA [C7A U20G],0.312
11,GGCCGGCAUGGUCCCAGCCUCCUCGCUGGCGCCGGCUGGGCAACAUUCCGAGGGGACCGUCCCCUCGGUUAUGGCGAAAGGGACCCA [A70U U79A],0.831
12,GGCCGGCAUGGUCCCAGCCUCCGCGCUGGCGCCCGCUGGGCAACAUUCCGAGGGGACCGUCCCCUCGGUAAUGGCGAAUGGGACCCA [U23G G34C],0.0415
13,GGCCGGCAUGGUCCCAGCCUCCUCGCUGGCGCCGGCUGGGCAACAUUCCGAGGGGACUGUCCCCUCGGUAAUGGCGAAUGAGACCCA [C58U G81A],0.584
14,GACCGGCAUGGUCCCAGCCUCCUCGCUGGCGCCGGCUGGGCAACAUUCCGAGGGGACCGUCCCCUCGGCAAUGGCGAAUGGGACCCA [G2A U69C],0.332
15,GGCCGGCAUGGUCCCAGCCUCCUCGCUGGCGACAGCUGGGCAACAUUCCGAGGGGACCGUCCCCUCGGUAAUGGCGAAUGGGACCCA [C32A G34A],0.032
16,GGCCGGCAUGGUCCCAGCCUCCUGGCUGGCGCCGGCUGGGCAACAUUCCGAGGGGACCGUCCCCUCCGUAAUGGCGAAUGGGACCCA [C24G G67C],0.026
17,GGCCGGCAUGGUCCCGGCCUCCUCGCUGGCGCCGGCUGGGCAACAUUCCGAGGGGACCGUCCCCUCCGUAAUGGCGAAUGGGACCCA [A16G G67C],0.849
18,GACCGGCAUGGUCCCAGCCUCCUCGCUGGCGCCGGCUGGGCAACAUUCCGAGGGCACCGUCCCCUCGGUAAUGGCGAAUGGGACCCA [G2A G55C],0.194
19,GGCCGGCAUGGUCCCAGCCUCCUCGCUGGCGCCGGCUGGGCAACAUUCCGAGGGGACCGUCCCCUCGGUAAUGGCGAGUGGGAACCA [A78G C84A],0.571
20,GGCCGGCAUGGUCCCAGCCUCCUCGCUGGCGCCGGCUGGGCAACGUUCCGAGGGGACCGUCCCCUCGGUGAUGGCGAAUGGGACCCA [A45G A70G],0.997
21,GGCCGGCAUGGUCCCAGCCUCCUCGCUGCCGCCCGCUGGGCAACAUUCCGAGGGGACCGUCCCCUCGGUAAUGGCGAAUGGGACCCA [G29C G34C],0.125
22,GGCCGGCAUGGUCCCAGCCUCCGCGCUGGCGCCGGCUUGGCAACAUUCCGAGGGGACCGUCCCCUCGGUAAUGGCGAAUGGGACCCA [U23G G38U],0.0583

row,Variant,self-cleavage
1,GGCCGGCAUGGUACCAGCCUCCUCGCUGGCGCCGGCUGGGCACCAUUCCGAGGGGACCGUCCCCUCGGUAAUGGCGAAUGGGACCCA [C13A A43C],0.135
2,GGCCGGCAUGGUCCCAGCCUCCUCGCUGGCGCCGGCUGGGGAACAUUCCGACGGGACCGUCCCCUCGGUAAUGGCGAAUGGGACCCA [C41G G52C],0.509
3,GCCCGGCAUGGUCCCAGCCUCCUCGCUGGCGCCGACUGGGCAACAUUCCGAGGGGACCGUCCCCUCGGUAAUGGCGAAUGGGACCCA [G2C G35A],0.0623
4,GGCCGGCAUGGUCCCAGCCUCCUUGCUGGCGCCGGCUGGGCAACAUUCCUAGGGGACCGUCCCCUCGGUAAUGGCGAAUGGGACCCA [C24U G50U],0.585
5,GGCCGGCAUGGUCCCAGCCUCCUCGCUGGCGCCGGCUGGGCAACAUUCCGAGGGGACCGUCCUCUCGGUAAUGGCGAAUCGGACCCA [C63U G80C],0.218
6,GGCCGGCAUGGUCCCAGCCUCCUCGCUGGCGCCGGCUGGGCAACAUUCCGAGUGGAUCGUCCCCUCGGUAAUGGCGAAUGGGACCCA [G53U C57U],1.01
7,GGCCGGCAUGGUCCCAGCCUCCUCGCUGGCGCCGGCUGGGCAACAUUCCGAGGGGACCGUCCCCUCGGAAAUGGCGAAUGGGACCCG [U69A A87G],0.99
8,GGCCGGCAUGGUCCCAGCCUCCUCGCUGGCGCCGGCUGGGGAACAUUCCGAGGGGACCGUCCCCUCGGUAAUGGCGAAUCGGACCCA [C41G G80C],0.164
9,GGCCGGCAUGGUCCCAGCCUCCUCGCUGGCGCCGGCUGGGCAACAUUCCGAGGUGGCCGUCCCCUCGGUAAUGGCGAAUGGGACCCA [G54U A56G],1.15
10,GGCAGGCAUGGUCCCAGCCUCCUCGCUGGCGCCGGAUGGGCAACAUUCCGAGGGGACCGUCCCCUCGGUAAUGGCGAAUGGGACCCA [C4A C36A],0.0314
11,GGCCGGCAUGGUCCCAGCCUCCUCACUGGCGCCGGCUGGGCAACAUUCCGAGGGGACCGUCCCCUCGGUAAUGGCGAAUGGGCCCCA [G25A A83C],0.146
12,GGCCGGCAUGGUCCCAGCCUCCUCGCUGGCGCCGGCUGGUCAACAUUCCGAGGGGACCGUCCCCUCGGUAAUGGCUAAUGGGACCCA [G40U G76U],0.795
13,GGCCGGCAUGGUCCCAGCCUCCUCGCUGGGGCCGGCUGGGCAACAUUCCGAGGGGACCGUCCCCUCGGUAAUGGCGCAUGGGACCCA [C30G A77C],0.095
14,GGCCGGCAUGGUCCCAGCCUCCUCGAUGGCGCCGGCUGGGCAACAUUCCGAGGGGACCGUCCCCUCGGUUAUGGCGAAUGGGACCCA [C26A A70U],1.23
15,GGCCGGCAUGGUCCCAGCCUACUCGCUGGCGCCGGCUGGGCAACAUUUCGAGGGGACCGUCCCCUCGGUAAUGGCGAAUGGGACCCA [C21A C48U],0.0639
16,GGCCGGCAUGGUCCCAGCCUCCUCGCUGGCGCCGGCUGGGCAACAUUCCGAGUAGACCGUCCCCUCGGUAAUGGCGAAUGGGACCCA [G53U G54A],0.758
17,GGCCGGCAUGGUCCCAGCCUCCUCGCUGGCGCCGGCUGGGCAACAUUCCGAUGGGACCGUCCCCUCGGUAAUGGCGAAUGGGAGCCA [G52U C84G],0.573
18,GGCCGGCAUGGUCCCAGCCUCCUCCCUAGCGCCGGCUGGGCAACAUUCCGAGGGGACCGUCCCCUCGGUAAUGGCGAAUGGGACCCA [G25C G28A],0.0297
19,GGCCGGCAUGGUCCCAGCCUCCUCGCUGGCGCCGGCUGGGCAACAUUCCGACGGGACCGUCCCCUCGGUAAUGGCGAAUGUGACCCA [G52C G81U],0.579
20,GGCAGGCAUGGUCCCAGCCUCCUCGCUGGCGCCGGCUGGGCAACAUUCCGAGGGGACCGUCCCCUCGGUAAUGGCGAGUGGGACCCA [C4A A78G],0.147
